# Experimental data as given in the supplement of paper PMC10567573.
# B1: MFF (parent)
# chain: YTEGISQRMRVPEKLKVAPPNADL
# Variants of: B1
# Assay: protein stability index of a GFP-peptide fusion (GPS, HEK-293T) (PSI 1-6); higher = more stable
# Conditions: c terminus: a fixed tail appended
# 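Note: lentivirally expressed fusions sorted by FACS into six bins by GFP to DsRed ratio, PSI derived from sequencing read proportions per bin multiplied by bin number.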
row,Variant,protein stability index
1,K14E,3.17
2,K14F,2.96
3,K14G,3.28
4,K14H,2.88
5,K14I,2.71
6,K14L,2.87
7,K14M,3.39
8,K14N,3.44
9,K14P,3.32
10,K14Q,3.41
11,K14R,3.55
12,K14S,3.38
13,K14T,3.06
14,K14V,2.72
15,K14W,2.11
16,K14Y,2.44
17,L15A,3.15
18,L15C,2.44
19,L15D,3.08
20,L15E,3.36
21,L15F,2.53
22,L15G,3.38
23,L15H,2.91
24,L15I,2.69

row,Variant,protein stability index
1,L15K,3.19
2,L15M,2.59
3,L15N,2.99
4,L15P,3.05
5,L15Q,3.06
6,L15R,2.58
7,L15S,3.15
8,L15T,2.71
9,L15V,3.09
10,L15W,2.51
11,L15Y,3.12
12,K16A,2.68
13,K16C,2.81
14,K16D,3.87
15,K16E,2.93
16,K16F,2.8
17,K16G,3.27
18,K16H,3.21
19,K16I,3.23
20,K16L,2.62
21,K16M,2.77
22,K16N,3.33
23,K16P,2.83
24,K16Q,2.67

row,Variant,protein stability index
1,K16R,2.34
2,K16S,3.62
3,K16T,3.16
4,K16V,2.9
5,K16W,2.49
6,K16Y,2.81
7,V17A,2.82
8,V17C,2.18
9,V17D,3.18
10,V17E,3.25
11,V17F,2.6
12,V17G,2.65
13,V17H,2.9
14,V17I,2.54
15,V17K,3.29
16,V17L,2.88
17,V17M,2.75
18,V17N,2.85
19,V17P,3.31
20,V17Q,2.95
21,V17R,3.22
22,V17S,2.48
23,V17T,2.89
24,V17W,2.35

row,Variant,protein stability index
1,V17Y,2.3
2,A18C,2.77
3,A18D,3.19
4,A18E,3.03
5,A18F,2.2
6,A18G,2.54
7,A18H,3.88
8,A18I,3.15
9,A18K,2.59
10,A18L,2.88
11,A18M,2.89
12,A18N,2.78
13,A18P,2.89
14,A18Q,3.24
15,A18R,2.67
16,A18S,2.85
17,A18T,3.03
18,A18V,2.72
19,A18W,2.23
20,A18Y,2.59
21,P19A,2.51
22,P19C,3.25
23,P19D,3.37
24,P19E,2.56

row,Variant,protein stability index
1,P19F,2.44
2,P19G,2.78
3,P19H,2.54
4,P19I,2.52
5,P19K,2.71
6,P19L,3.41
7,P19M,2.32
8,P19N,2.78
9,P19Q,2.67
10,P19R,2.43
11,P19S,2.62
12,P19T,2.51
13,P19V,3.29
14,P19W,1.91
15,P19Y,2.33
16,P20A,2.98
17,P20C,2.44
18,P20D,3.04
19,P20E,3.55
20,P20F,2.01
21,P20G,2.91
22,P20H,2.69
23,P20I,2.75
24,P20K,3.51

row,Variant,protein stability index
1,P20L,2.24
2,P20M,2.66
3,P20N,3.12
4,P20Q,3.44
5,P20R,2.75
6,P20S,2.65
7,P20T,2.69
8,P20V,3.06
9,P20W,2.35
10,P20Y,2.04
11,N21A,3.21
12,N21C,2.33
13,N21D,3.1
14,N21E,2.87
15,N21F,2.25
16,N21G,2.72
17,N21H,2.91
18,N21I,2.34
19,N21K,2.99
20,N21L,2.09
21,N21M,2.67
22,N21Q,2.9
23,N21R,3.19
24,N21S,3.24

row,Variant,protein stability index
1,N21T,2.71
2,N21V,3.09
3,N21W,2
4,N21Y,2.5
5,A22C,2.62
6,A22D,3.34
7,A22E,3.33
8,A22F,2.83
9,A22G,2.96
10,A22H,2.69
11,A22I,2.45
12,A22K,3.28
13,A22L,2.39
14,A22M,2.68
15,A22N,2.92
16,A22P,2.9
17,A22Q,2.81
18,A22R,2.77
19,A22S,2.87
20,A22T,2.91
21,A22V,3.09
22,A22W,2.45
23,A22Y,2.56
